Reference: publication PMC6160236, “Disrupted structure and aberrant function of CHIP mediates the loss of motor and cognitive function in preclinical models of SCAR16” (PLoS Genetics, 2018)
Blank lines part the entries; values can stand above or below the binder they belong to.

Key:
[1] = target: T1, CHIP (carboxyl terminus of heat shock 70-interacting protein), recombinant His-tagged wild type (human), Q9UNE7; test: SEC-MALS; GE Superdex 200 column with Wyatt DAWN HELEOS-II and T-Rex refractometer; 100 μl of 0.5 mg/ml of each sample loaded; oligomeric species of each CHIP protein; settings: remark: other sources report otherwise
T1 chain: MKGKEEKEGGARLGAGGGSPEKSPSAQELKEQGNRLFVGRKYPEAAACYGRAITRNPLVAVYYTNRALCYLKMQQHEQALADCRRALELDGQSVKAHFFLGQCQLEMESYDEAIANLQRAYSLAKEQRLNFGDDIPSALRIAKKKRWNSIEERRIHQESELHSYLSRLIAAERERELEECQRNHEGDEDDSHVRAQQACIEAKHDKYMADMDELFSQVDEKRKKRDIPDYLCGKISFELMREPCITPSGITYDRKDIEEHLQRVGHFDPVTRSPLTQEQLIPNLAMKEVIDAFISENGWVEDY

[2] = target: T2, myc-CHIP wild type (pcDNA3-mycCHIP) (human), Q9UNE7; test: native gel or EMSA; blue native PAGE (4-16% NativePAGE) of fresh lysates of transfected COS-7 cells, immunoblot with anti-myc; settings: remark: other sources report otherwise
T2 chain: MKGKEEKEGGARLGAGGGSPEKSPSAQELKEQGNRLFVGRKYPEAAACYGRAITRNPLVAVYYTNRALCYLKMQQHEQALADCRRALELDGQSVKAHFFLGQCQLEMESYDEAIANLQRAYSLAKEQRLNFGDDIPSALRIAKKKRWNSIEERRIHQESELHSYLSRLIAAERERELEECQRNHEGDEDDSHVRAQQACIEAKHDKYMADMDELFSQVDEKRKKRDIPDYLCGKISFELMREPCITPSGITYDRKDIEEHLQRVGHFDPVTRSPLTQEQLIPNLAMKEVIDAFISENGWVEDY

[3] = target: T3, CHIP-K30A, recombinant His-tagged (human), Q9UNE7; test: SEC-MALS; GE Superdex 200 column with Wyatt DAWN HELEOS-II and T-Rex refractometer; 100 μl of 0.5 mg/ml of each sample loaded; oligomeric species of each CHIP protein; settings: remark: other sources report otherwise
T3 chain: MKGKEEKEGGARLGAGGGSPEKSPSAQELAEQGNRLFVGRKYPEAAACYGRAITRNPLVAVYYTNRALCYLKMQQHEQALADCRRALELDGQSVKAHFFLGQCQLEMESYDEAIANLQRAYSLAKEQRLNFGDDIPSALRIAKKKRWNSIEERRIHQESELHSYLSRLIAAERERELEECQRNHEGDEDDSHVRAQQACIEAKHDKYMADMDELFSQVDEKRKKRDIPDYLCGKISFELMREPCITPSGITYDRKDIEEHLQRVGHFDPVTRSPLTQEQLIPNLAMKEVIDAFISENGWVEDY

[4] = target: the molecule itself; test: as above
[5] = target: T4, myc-CHIP-K30A (pcDNA3-mycCHIP-K30A) (human), Q9UNE7; test: native gel or EMSA; blue native PAGE (4-16% NativePAGE) of fresh lysates of transfected COS-7 cells, immunoblot with anti-myc; settings: remark: other sources report otherwise
T4 chain: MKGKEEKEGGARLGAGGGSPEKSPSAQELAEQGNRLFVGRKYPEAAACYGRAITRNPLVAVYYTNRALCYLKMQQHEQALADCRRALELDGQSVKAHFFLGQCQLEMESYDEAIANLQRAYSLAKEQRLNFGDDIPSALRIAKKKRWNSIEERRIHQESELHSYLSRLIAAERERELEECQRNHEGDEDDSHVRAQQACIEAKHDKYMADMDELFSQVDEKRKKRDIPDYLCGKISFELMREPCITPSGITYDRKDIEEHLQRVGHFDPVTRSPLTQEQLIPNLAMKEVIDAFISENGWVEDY

stoichiometry N [2]: 2
B2: myc-CHIP wild type (pcDNA3-mycCHIP), Q9UNE7 1-303 (enzyme)
chain: MKGKEEKEGGARLGAGGGSPEKSPSAQELKEQGNRLFVGRKYPEAAACYGRAITRNPLVAVYYTNRALCYLKMQQHEQALADCRRALELDGQSVKAHFFLGQCQLEMESYDEAIANLQRAYSLAKEQRLNFGDDIPSALRIAKKKRWNSIEERRIHQESELHSYLSRLIAAERERELEECQRNHEGDEDDSHVRAQQACIEAKHDKYMADMDELFSQVDEKRKKRDIPDYLCGKISFELMREPCITPSGITYDRKDIEEHLQRVGHFDPVTRSPLTQEQLIPNLAMKEVIDAFISENGWVEDY

percent of the protein as 2mer [3]: 80.4% | percent of the protein as 4mer [3]: 16.4% | percent of the protein as 6mer [3]: 2.6% | stoichiometry N [3]: 2
B3: CHIP-K30A, recombinant His-tagged, Q9UNE7 1-303 (enzyme)
chain: MKGKEEKEGGARLGAGGGSPEKSPSAQELAEQGNRLFVGRKYPEAAACYGRAITRNPLVAVYYTNRALCYLKMQQHEQALADCRRALELDGQSVKAHFFLGQCQLEMESYDEAIANLQRAYSLAKEQRLNFGDDIPSALRIAKKKRWNSIEERRIHQESELHSYLSRLIAAERERELEECQRNHEGDEDDSHVRAQQACIEAKHDKYMADMDELFSQVDEKRKKRDIPDYLCGKISFELMREPCITPSGITYDRKDIEEHLQRVGHFDPVTRSPLTQEQLIPNLAMKEVIDAFISENGWVEDY

stoichiometry N [5]: 2
B5: myc-CHIP-K30A (pcDNA3-mycCHIP-K30A), Q9UNE7 1-303 (enzyme)
chain: MKGKEEKEGGARLGAGGGSPEKSPSAQELAEQGNRLFVGRKYPEAAACYGRAITRNPLVAVYYTNRALCYLKMQQHEQALADCRRALELDGQSVKAHFFLGQCQLEMESYDEAIANLQRAYSLAKEQRLNFGDDIPSALRIAKKKRWNSIEERRIHQESELHSYLSRLIAAERERELEECQRNHEGDEDDSHVRAQQACIEAKHDKYMADMDELFSQVDEKRKKRDIPDYLCGKISFELMREPCITPSGITYDRKDIEEHLQRVGHFDPVTRSPLTQEQLIPNLAMKEVIDAFISENGWVEDY

The remaining lines, values behind:

B1: CHIP (carboxyl terminus of heat shock 70-interacting protein), recombinant His-tagged wild type, Q9UNE7 1-303 (enzyme)
chain: MKGKEEKEGGARLGAGGGSPEKSPSAQELKEQGNRLFVGRKYPEAAACYGRAITRNPLVAVYYTNRALCYLKMQQHEQALADCRRALELDGQSVKAHFFLGQCQLEMESYDEAIANLQRAYSLAKEQRLNFGDDIPSALRIAKKKRWNSIEERRIHQESELHSYLSRLIAAERERELEECQRNHEGDEDDSHVRAQQACIEAKHDKYMADMDELFSQVDEKRKKRDIPDYLCGKISFELMREPCITPSGITYDRKDIEEHLQRVGHFDPVTRSPLTQEQLIPNLAMKEVIDAFISENGWVEDY
percent of the protein as 2mer [1]: 69.7% | percent of the protein as 4mer [1]: 25.2% | percent of the protein as 6mer [1]: 4.8% | stoichiometry N [1]: 2

B4: CHIP-T246M, recombinant His-tagged (enzyme, human, UniProt Q9UNE7 1-303, looked up)
chain: MKGKEEKEGGARLGAGGGSPEKSPSAQELKEQGNRLFVGRKYPEAAACYGRAITRNPLVAVYYTNRALCYLKMQQHEQALADCRRALELDGQSVKAHFFLGQCQLEMESYDEAIANLQRAYSLAKEQRLNFGDDIPSALRIAKKKRWNSIEERRIHQESELHSYLSRLIAAERERELEECQRNHEGDEDDSHVRAQQACIEAKHDKYMADMDELFSQVDEKRKKRDIPDYLCGKISFELMREPCIMPSGITYDRKDIEEHLQRVGHFDPVTRSPLTQEQLIPNLAMKEVIDAFISENGWVEDY
notes: CHIP (gene STUB1), full-length protein with the SCAR16 patient mutation p.T246M in the U-box; T246M is a mutation found in SCAR16 patients; source: Escherichia coli BL21(DE3), purified (HisTrap HP)
stoichiometry N [4]: 10 to 12
